Measured values reported in patent publication US20100055739.

System: T1, Bli1904II restriction endonuclease (Bacillus licheniformis)
T1 sequence: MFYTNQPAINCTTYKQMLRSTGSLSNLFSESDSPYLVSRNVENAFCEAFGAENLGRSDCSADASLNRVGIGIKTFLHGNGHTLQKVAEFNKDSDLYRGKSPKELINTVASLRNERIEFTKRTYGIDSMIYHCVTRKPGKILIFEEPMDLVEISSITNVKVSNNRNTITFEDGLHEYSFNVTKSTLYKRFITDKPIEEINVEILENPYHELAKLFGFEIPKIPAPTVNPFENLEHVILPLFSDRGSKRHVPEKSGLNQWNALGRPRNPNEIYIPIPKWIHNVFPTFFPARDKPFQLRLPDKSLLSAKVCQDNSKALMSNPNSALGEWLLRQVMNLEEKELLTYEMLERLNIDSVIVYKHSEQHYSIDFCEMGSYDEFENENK
Test: cell_activity

Substance	activity (transformants per ug DNA) (restriction of unmethylated plasmid in SJ1904, 6.4e3 in Bli1904II deletion strain MDT269, site inferred from cognate methylase)	activity (transformants per ug DNA) (methylated by M.Bli1904II at GCNGC (C5-cytosine type, position not stated), methylated plasmid not restricted in SJ1904, 7.2e3 in deletion strain MDT269)
GCNGC (double strand) [pCJ791 plasmid GCNGC sites, unmethylated]	17	–
GCNGC (double strand) [pCJ791 plasmid GCNGC sites, M.Bli1904II-methylated]	–	16000
